Source: patent publication EP4714971A1 (Shanghai Hansoh Biomedical Co., Ltd., dated 2024)
Like-named read-outs stand apart in the source and are kept apart here. One block for each binder: values may come before it.

Columns and labels:
[1] = target: T1, SEZ6L-Fc protein (human, UniProt Q9BYH1 29-958, limits assumed); experiment: ELISA, coated Fc fusion protein at 1 ug/mL
T1 construct: The construct is not described beyond its name; also called SEZ6L protein; Human SEZ6L1; not shown: Fc
T1 sequence (looked up): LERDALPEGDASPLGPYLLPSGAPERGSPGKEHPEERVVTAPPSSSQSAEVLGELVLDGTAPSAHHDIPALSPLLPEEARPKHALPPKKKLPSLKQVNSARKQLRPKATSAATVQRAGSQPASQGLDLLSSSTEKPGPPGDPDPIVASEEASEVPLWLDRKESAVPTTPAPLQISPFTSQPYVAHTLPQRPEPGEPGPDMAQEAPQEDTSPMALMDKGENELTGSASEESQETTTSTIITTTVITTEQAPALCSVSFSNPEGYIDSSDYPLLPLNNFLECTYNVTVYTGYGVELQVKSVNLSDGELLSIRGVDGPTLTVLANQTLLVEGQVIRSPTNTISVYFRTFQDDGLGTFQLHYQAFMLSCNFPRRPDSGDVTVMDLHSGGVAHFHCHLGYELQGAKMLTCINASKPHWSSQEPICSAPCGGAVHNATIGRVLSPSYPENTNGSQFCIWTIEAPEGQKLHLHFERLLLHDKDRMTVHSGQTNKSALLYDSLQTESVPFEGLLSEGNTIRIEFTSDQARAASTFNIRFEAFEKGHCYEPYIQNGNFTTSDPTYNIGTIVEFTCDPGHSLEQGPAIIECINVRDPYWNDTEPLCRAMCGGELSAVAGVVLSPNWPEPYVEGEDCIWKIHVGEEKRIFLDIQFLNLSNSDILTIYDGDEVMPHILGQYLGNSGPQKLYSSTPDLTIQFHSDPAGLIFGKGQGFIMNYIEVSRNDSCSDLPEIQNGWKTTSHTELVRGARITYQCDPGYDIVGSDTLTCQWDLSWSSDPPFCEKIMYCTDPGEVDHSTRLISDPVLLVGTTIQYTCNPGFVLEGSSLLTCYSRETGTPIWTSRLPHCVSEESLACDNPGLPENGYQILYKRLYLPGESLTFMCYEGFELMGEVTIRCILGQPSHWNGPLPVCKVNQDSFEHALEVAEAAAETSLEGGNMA

[2] = target: T2, SEZ6L2-Fc (human, UniProt Q6UXD5 28-844, limits assumed); experiment: ELISA, coated Fc fusion protein at 1 ug/mL
T2 construct: The construct is not described beyond its name; also called SEZ6L2 protein; Human SEZ6L2; not shown: Fc
T2 sequence (Q6UXD5 28-844 limits assumed): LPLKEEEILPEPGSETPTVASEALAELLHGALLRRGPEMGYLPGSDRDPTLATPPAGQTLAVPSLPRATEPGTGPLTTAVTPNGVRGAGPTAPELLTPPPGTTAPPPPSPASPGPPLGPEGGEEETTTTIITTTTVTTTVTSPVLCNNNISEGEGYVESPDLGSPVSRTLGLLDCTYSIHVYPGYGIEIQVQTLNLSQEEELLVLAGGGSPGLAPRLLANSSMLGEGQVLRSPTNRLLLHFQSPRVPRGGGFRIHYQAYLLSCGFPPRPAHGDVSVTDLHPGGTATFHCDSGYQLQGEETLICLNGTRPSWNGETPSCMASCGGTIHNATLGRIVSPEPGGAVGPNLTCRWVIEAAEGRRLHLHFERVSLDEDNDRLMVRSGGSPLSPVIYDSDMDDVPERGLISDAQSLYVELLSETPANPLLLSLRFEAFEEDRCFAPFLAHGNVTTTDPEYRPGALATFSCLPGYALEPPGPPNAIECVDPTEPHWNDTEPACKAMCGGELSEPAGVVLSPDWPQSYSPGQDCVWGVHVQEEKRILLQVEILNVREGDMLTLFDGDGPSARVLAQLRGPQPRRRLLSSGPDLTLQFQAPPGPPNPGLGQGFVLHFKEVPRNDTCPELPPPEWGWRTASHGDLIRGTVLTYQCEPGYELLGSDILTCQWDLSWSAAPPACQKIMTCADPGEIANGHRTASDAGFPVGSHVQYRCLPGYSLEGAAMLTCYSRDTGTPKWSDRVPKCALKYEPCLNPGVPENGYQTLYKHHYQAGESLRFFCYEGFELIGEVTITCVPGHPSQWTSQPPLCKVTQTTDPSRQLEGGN

[3] = target: T3, human SEZ6 expressed on stably transfected CHO-K1 cells (human, UniProt Q53EL9 20-994); experiment: flow cytometry on CHO-K1 cells expressing human SEZ6
T3 construct: also called CHO-SEZ6; hSEZ6
T3 sequence: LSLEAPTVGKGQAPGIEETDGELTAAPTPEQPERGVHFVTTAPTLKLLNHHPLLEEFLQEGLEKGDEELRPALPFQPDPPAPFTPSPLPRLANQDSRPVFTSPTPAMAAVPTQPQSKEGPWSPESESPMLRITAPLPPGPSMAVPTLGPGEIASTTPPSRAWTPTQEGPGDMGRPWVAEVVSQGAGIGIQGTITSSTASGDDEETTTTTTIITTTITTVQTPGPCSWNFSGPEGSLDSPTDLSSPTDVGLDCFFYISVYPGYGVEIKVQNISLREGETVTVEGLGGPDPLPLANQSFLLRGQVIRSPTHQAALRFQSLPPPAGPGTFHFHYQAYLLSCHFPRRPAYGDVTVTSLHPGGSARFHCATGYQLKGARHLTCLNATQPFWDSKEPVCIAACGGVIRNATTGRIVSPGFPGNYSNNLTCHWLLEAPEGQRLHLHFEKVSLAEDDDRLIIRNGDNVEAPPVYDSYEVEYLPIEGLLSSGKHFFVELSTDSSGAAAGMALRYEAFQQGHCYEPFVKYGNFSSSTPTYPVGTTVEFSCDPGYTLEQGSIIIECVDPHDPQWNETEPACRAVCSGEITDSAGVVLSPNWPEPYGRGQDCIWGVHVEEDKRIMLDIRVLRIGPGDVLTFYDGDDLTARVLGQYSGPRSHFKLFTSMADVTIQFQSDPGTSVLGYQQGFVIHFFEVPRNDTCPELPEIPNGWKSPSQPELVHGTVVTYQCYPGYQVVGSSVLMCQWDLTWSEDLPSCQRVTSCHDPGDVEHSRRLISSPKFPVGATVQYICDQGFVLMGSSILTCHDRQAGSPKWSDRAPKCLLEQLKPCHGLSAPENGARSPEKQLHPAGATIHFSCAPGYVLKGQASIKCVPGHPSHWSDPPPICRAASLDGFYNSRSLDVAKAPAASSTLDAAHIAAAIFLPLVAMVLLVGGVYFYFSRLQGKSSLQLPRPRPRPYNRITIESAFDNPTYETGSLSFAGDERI

[4] = target: T3, human SEZ6 expressed on stably …; experiment: as above; remark: listed apart in the source
[5] = target: T3, human SEZ6 expressed on stably …; experiment: as above; remark: listed apart in the source

- binding result [1]: no binding (tested: 10 nM)
- binding result [2]: no binding (tested: 10 nM)
B1: PR3178 (antibody, human IgG1, kappa, V domains shown)
VH: QVQLVQSGAEVKKPGASVKVSCKASGYTFTDYEMHWVRQAPGQGLEWMGGIDPESDNTVYNQKFKGRVTLTEDTSTSTAYMELRSLRSEDTAVYYCTRGDWYFDVWGQGTTVTVSS
VL: DIVMTQSPDSLAVSLGERATINCKSSQSLLNSRTRENYLAWYQQKPGQPPKLLIYWASTRESGVPDRFSGSGSGTDFTLTISSLQAEDVAVYYCGQSYNLFTFGQGTKLEIKR
notes: Humanized, human IgG1, kappa; also called humanized antibody of cAb3009

- EC50 [3]: 0.66 nM
- MFImax [3]: 3300
- EC50 [4]: 0.21 nM
- MFImax [4]: 3940
- EC50 [5]: 0.19 nM
B2: hSC200 (hSC17.200) (antibody, human IgG1, kappa, V domains shown)
VH: EVQLVQSGAEVKKPGESLKISCKGSGYSFTSSWINWVRQMPGKGLEWMGRIYPGEGDTNYNGNFEGQVTISADKSISTAYLQWSSLKASDTAMYYCTRGLVMDYWGQGTLVTVSS
VL: EIVLTQSPATLSLSPGERATLSCRASQSVDYNGISYMHWYQQKPGQAPRLLIYAASNVQSGIPARFSGSGSGTDFTLTISSLEPEDFAVYYCQQSIEDPPTFGGGTKVEIKR
notes: also called control molecule; control antibody
